Laboratory results: publication doi:10.1101/2023.04.17.536592
pKd: −log10 of the molar value.

Legend:
[1] = target: H. sapiens nucleosome core particle (NCP) (human); assay: native gel or EMSA
[2] = target: Kaposi's Sarcoma Herpesvirus Latency Associated Nuclear Antigen (LANA) peptide (Kaposi's Sarcoma Herpesvirus); assay: fluorescence polarisation
Kaposi's Sarcoma Herpesvirus Latency Associated Nuclear Antigen (LANA) peptide (Kaposi's Sarcoma Herpesvirus), sequence (Q9QR71 4-23): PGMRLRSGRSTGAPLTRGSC

Q: “GST-His-TEV-tagged PFV GAG (from UniProt P14349 535-550) (peptide)” was tested. Which pKd [1] did it give?
A: 5.46

Q: How did the pKd [2] turn out when “H. sapiens nucleosome core particle (NCP) (complex)” was run?
A: 5.62
